PMC10397247
Values belong to the binder of their own block, whether it stands above or below them.

Experiments:
4H1854-AA = target: T1, 4H1854-AA; assay: two-hybrid library CCmax;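 also: natural log of median RNA to DNA barcode read ratio; higher means stronger binding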
T1 chain: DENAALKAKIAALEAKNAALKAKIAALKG

4H189-AA = target: T2, 4H189-AA; assay: two-hybrid library CCmax; details: mean of both orientations;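 also: natural log of median RNA to DNA barcode read ratio; higher means stronger binding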
T2 chain: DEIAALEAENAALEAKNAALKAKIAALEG

4H2248-AA = target: T3, 4H2248-AA; assay: two-hybrid library CCmax; details: mean of both orientations;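 also: natural log of median RNA to DNA barcode read ratio; higher means stronger binding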
T3 chain: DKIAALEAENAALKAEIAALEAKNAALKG

4H2283-AA = target: T4, 4H2283-AA; assay: two-hybrid library CCmax; details: mean of both orientations;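 also: natural log of median RNA to DNA barcode read ratio; higher means stronger binding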
T4 chain: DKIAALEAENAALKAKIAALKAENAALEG

4H2713-AA = target: T5, 4H2713-AA; assay: two-hybrid library CCmax; details: mean of both orientations;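 also: natural log of median RNA to DNA barcode read ratio; higher means stronger binding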
T5 chain: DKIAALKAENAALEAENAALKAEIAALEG

4H2742-AA = target: T6, 4H2742-AA; assay: two-hybrid library CCmax; details: mean of both orientations;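 also: natural log of median RNA to DNA barcode read ratio; higher means stronger binding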
T6 chain: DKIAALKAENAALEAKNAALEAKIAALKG

4H2948-AA = target: T7, 4H2948-AA; assay: two-hybrid library CCmax; details: mean of both orientations
T7 chain: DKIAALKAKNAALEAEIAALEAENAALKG

4H2991-AA = target: T8, 4H2991-AA; assay: two-hybrid library CCmax; details: mean of both orientations
T8 chain: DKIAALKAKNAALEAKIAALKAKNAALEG

4H3029-AA = target: T9, 4H3029-AA; assay: two-hybrid library CCmax; details: mean of both orientations
T9 chain: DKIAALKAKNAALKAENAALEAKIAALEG

4H3066-AA = target: T10, 4H3066-AA; assay: two-hybrid library CCmax; details: mean of both orientations
T10 chain: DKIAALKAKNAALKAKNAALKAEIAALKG

4H3102-AA = target: T11, 4H3102-AA; assay: two-hybrid library CCmax; details: mean of both orientations
T11 chain: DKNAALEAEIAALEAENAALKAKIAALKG

4H3121-AA = target: T12, 4H3121-AA; assay: two-hybrid library CCmax; details: mean of both orientations
T12 chain: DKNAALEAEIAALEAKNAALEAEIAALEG

4H3417-AA = target: T13, 4H3417-AA; assay: two-hybrid library CCmax; details: mean of both orientations
T13 chain: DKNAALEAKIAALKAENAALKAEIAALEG

4H3446-AA = target: T14, 4H3446-AA; assay: two-hybrid library CCmax; details: mean of both orientations
T14 chain: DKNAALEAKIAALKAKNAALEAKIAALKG

4H3591-AA = target: T15, 4H3591-AA; assay: two-hybrid library CCmax; details: mean of both orientations
T15 chain: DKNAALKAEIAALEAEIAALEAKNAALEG

4H3628-AA = target: T16, 4H3628-AA; assay: two-hybrid library CCmax; details: mean of both orientations
T16 chain: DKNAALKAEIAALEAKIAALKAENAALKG

4H3666-AA = target: T17, 4H3666-AA; assay: two-hybrid library CCmax; details: mean of both orientations
T17 chain: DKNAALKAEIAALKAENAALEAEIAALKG

4H3709-AA = target: T18, 4H3709-AA; assay: two-hybrid library CCmax; details: mean of both orientations
T18 chain: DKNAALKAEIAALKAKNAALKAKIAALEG

4H391-AA = target: T19, 4H391-AA; assay: two-hybrid library CCmax; details: mean of both orientations
T19 chain: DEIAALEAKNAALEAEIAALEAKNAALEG

4H3920-AA = target: T20, 4H3920-AA; assay: two-hybrid library CCmax; details: mean of both orientations
T20 chain: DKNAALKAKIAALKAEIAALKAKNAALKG

4H3939-AA = target: T21, 4H3939-AA; assay: two-hybrid library CCmax; details: mean of both orientations
T21 chain: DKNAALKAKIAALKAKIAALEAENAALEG

4H428-AA = target: T22, 4H428-AA; assay: two-hybrid library CCmax; details: mean of both orientations
T22 chain: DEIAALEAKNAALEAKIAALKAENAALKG

4H478-AA = target: T23, 4H478-AA; assay: two-hybrid library CCmax; details: mean of both orientations
T23 chain: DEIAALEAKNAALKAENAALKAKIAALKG

4H497-AA = target: T24, 4H497-AA; assay: two-hybrid library CCmax; details: mean of both orientations
T24 chain: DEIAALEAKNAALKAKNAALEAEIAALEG

4H656-AA = target: T25, 4H656-AA; assay: two-hybrid library CCmax; details: mean of both orientations
T25 chain: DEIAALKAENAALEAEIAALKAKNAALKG

4H675-AA = target: T26, 4H675-AA; assay: two-hybrid library CCmax; details: mean of both orientations
T26 chain: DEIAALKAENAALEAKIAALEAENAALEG

4H971-AA = target: T27, 4H971-AA; assay: two-hybrid library CCmax; details: mean of both orientations
T27 chain: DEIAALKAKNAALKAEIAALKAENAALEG

P7A-bH = target: T28, P7A-bH; assay: two-hybrid library CCNG1
T28 chain: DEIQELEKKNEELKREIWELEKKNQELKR

P8A-bH = target: T29, P8A-bH; assay: two-hybrid library CCNG1
T29 chain: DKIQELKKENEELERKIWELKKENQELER

P9A-bH = target: T30, P9A-bH; assay: two-hybrid library CCNG1
T30 chain: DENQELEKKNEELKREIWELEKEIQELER

O2-bA = target: T31, O2-bA; assay: two-hybrid library CCNG1
T31 chain: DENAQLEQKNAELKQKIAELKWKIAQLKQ

O3-bA = target: T32, O3-bA; assay: two-hybrid library CCNG1
T32 chain: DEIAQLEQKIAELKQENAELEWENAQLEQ

O4-bA = target: T33, O4-bA; assay: two-hybrid library CCNG1
T33 chain: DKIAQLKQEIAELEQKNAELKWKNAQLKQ

O5-bA = target: T34, O5-bA; assay: two-hybrid library CCNG1
T34 chain: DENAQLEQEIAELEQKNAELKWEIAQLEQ

O6-bA = target: T35, O6-bA; assay: two-hybrid library CCNG1
T35 chain: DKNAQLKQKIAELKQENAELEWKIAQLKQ

O7-bA = target: T36, O7-bA; assay: two-hybrid library CCNG1
T36 chain: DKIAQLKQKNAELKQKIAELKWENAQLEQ

O8-bA = target: T37, O8-bA; assay: two-hybrid library CCNG1
T37 chain: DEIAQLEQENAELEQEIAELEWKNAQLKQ

O9-bA = target: T38, O9-bA; assay: two-hybrid library CCNG1
T38 chain: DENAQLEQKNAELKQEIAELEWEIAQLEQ

P7mSN = target: T39, P7mSN; assay: two-hybrid library CCNG1
T39 chain: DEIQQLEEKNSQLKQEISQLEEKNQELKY

P8mSN = target: T40, P8mSN; assay: two-hybrid library CCNG1
T40 chain: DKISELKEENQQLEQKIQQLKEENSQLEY

P9mSN = target: T41, P9mSN; assay: two-hybrid library CCNG1
T41 chain: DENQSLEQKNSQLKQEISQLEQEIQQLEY

4H470-bH = target: T42, 4H470-bH; assay: two-hybrid library CCNG1
T42 chain: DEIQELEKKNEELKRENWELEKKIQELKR

O3 = target: T43, O3; assay: two-hybrid library CC0; details: mean of both orientations
T43 chain: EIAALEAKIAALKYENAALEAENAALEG

O4 = target: T44, O4; assay: two-hybrid library CC0; details: mean of both orientations
T44 chain: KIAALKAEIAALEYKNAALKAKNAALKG

O5 = target: T45, O5; assay: two-hybrid library CC0; details: mean of both orientations
T45 chain: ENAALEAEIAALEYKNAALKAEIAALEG

O6 = target: T46, O6; assay: two-hybrid library CC0; details: mean of both orientations
T46 chain: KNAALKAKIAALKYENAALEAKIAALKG

O7 = target: T47, O7; assay: two-hybrid library CC0; details: mean of both orientations
T47 chain: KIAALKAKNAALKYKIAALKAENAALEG

O8 = target: T48, O8; assay: two-hybrid library CC0; details: mean of both orientations
T48 chain: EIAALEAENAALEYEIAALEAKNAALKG

O9 = target: T49, O9; assay: two-hybrid library CC0; details: mean of both orientations
T49 chain: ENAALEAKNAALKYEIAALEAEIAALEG

P8A-bS = target: T50, P8A-bS; assay: two-hybrid library CCNG1
T50 chain: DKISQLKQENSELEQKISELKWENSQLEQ

P9A-bS = target: T51, P9A-bS; assay: two-hybrid library CCNG1
T51 chain: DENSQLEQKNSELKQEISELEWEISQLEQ

B5: 4H470-bH (peptide)
chain: DEIQELEKKNEELKRENWELEKKIQELKR
interaction score (4H470-bH): 0.789

B6: O3 (peptide)
chain: EIAALEAKIAALKYENAALEAENAALEG
interaction score (O3): -2.75
interaction score (O4): 1.48
interaction score (O5): -2.78
interaction score (O6): -2.66
interaction score (O7): -2.77
interaction score (O8): -2.58
interaction score (O9): -2.71

B7: P8A-bS (peptide)
chain: DKISQLKQENSELEQKISELKWENSQLEQ
interaction score (P8A-bS): -0.428
interaction score (P9A-bS): -0.26

More lines, now with the values ahead:

interaction score (4H1854-AA): 0.401
interaction score (4H189-AA): -1.76
interaction score (4H2248-AA): 1.14
interaction score (4H2283-AA): -0.597
interaction score (4H2713-AA): -0.843
interaction score (4H2742-AA): -1.53
interaction score (4H2948-AA): -0.756
interaction score (4H2991-AA): -1.61
interaction score (4H3029-AA): -0.674
interaction score (4H3066-AA): -1.5
interaction score (4H3102-AA): 0.389
interaction score (4H3121-AA): 1.28
interaction score (4H3417-AA): 1.7
interaction score (4H3446-AA): -1
interaction score (4H3591-AA): -0.937
interaction score (4H3628-AA): -1.22
interaction score (4H3666-AA): 1.68
interaction score (4H3709-AA): -0.898
interaction score (4H391-AA): 0.189
interaction score (4H3920-AA): -1.51
interaction score (4H3939-AA): -1.28
interaction score (4H428-AA): -0.746
interaction score (4H478-AA): -1.16
interaction score (4H497-AA): -1.88
interaction score (4H656-AA): 0.553
interaction score (4H675-AA): 0.675
interaction score (4H971-AA): -2.3
B1: 4H1854-AA (peptide)
chain: DENAALKAKIAALEAKNAALKAKIAALKG

interaction score (P7A-bH): 1.35
interaction score (P8A-bH): 0.924
interaction score (P9A-bH): 0.983
B2: P6A-bH (peptide)
chain: DKNQELKKEIEELERENWELEKKIQELKR

interaction score (O2-bA): -0.405
interaction score (O3-bA): -0.0372
interaction score (O4-bA): -0.35
interaction score (O5-bA): 0.59
interaction score (O6-bA): -0.5
interaction score (O7-bA): -0.0715
interaction score (O8-bA): 0.682
interaction score (O9-bA): 1
B3: O2-bA (peptide)
chain: DENAQLEQKNAELKQKIAELKWKIAQLKQ

interaction score (P7mSN): -0.219
interaction score (P8mSN): 0.927
interaction score (P9mSN): -0.424
B4: P7mSN (peptide)
chain: DEIQQLEEKNSQLKQEISQLEEKNQELKY
